# Data taken from PMC4355278 (Journal of molecular biology, 2015).
# Columns and labels:
# SEC = target: the molecule itself; assay: SEC
# Pex1/Pex6 complex = Pex1/Pex6 complex (Saccharomyces cerevisiae, UniProt P24004); assay: ATPase assay
Kd (Pex1/Pex6 complex) [nM],Binder,binding result (SEC)
,"Pex1-FLAG (recombinant) (natural protein, S. cerevisiae, UniProt P24004 1-1043, looked up) MTTTKRLKFENLRIQFSNAIVGNFLRLPHSIINVLESTNYAIQEFGIAVHSHNSDIPIVHLGWDGHDSGSSENVVLINPVLATVYDLNQKSPLVDLYIQRYDHTHLATEVYVTPETSDDWEIIDANAMRFQNGEILHQTRIVTPGETLICYLEGIVTKFKIDRVEPSMKSARITDGSLVVVAPKVNKTRLVKAEYGHSNKTILKNGAIQLLKKVILRSTVCKMDFPKDNLFVVYISDGAQLPSQKGYASIVKCSLRQSKKSDSDNKSVGIPSKKIGVFIKCDSQIPENHIALSSHLWDAFFTHPMNGAKIKLEFLQMNQANIISGRNATVNIKYFGKDVPTKSGDQYSKLLGGSLLTNNLILPTEQIIIEIKKGESEQQLCNLNEISNESVQWKVTQMGKEEVKDIIERHLPKHYHVKETGEVSRTSKDEDDFITVNSIKKEMVNYLTSPIIATPAIILDGKQGIGKTRLLKELINEVEKDHHIFVKYADCETLHETSNLDKTQKLIMEWCSFCYWYGPSLIVLDNVEALFGKPQANDGDPSNNGQWDNASKLLNFFINQVTKIFNKDNKRIRVLFSGKQKTQINPLLFDKHFVSETWSLRAPDKHARAKLLEYFFSKNQIMKLNRDLQFSDLSLETEGFSPLDLEIFTEKIFYDLQLERDCDNVVTRELFSKSLSAFTPSALRGVKLTKETNIKWGDIGALANAKDVLLETLEWPTKYEPIFVNCPLRLRSGILLYGYPGCGKTLLASAVAQQCGLNFISVKGPEILNKFIGASEQNIRELFERAQSVKPCILFFDEFDSIAPKRGHDSTGVTDRVVNQLLTQMDGAEGLDGVYILAATSRPDLIDSALLRPGRLDKSVICNIPTESERLDILQAIVNSKDKDTGQKKFALEKNADLKLIAEKTAGFSGADLQGLCYNAYLKSVHRWLSAADQSEVVPGNDNIEYFSINEHGRREENRLRLKTLLQQDVVHETKTSTSAASELTAVVTINDLLEACQETKPSISTSELVKLRGIYDRFQKDRNGEMPNGENSIDIGSRLSLM",binds
185,Pex15 cytosolic domain (protein) MAASEIMNNLPMHSLDSSLRDLLNDDLFIESDESTKSVNDQRSEVFQECVNLFIKRDIKDCLEKMSEVGFIDITVFKSNPMILDLFVSACDIMPSFTKLGLTLQSEILNIFTLDTPQCIETRKIILGDLSKLLVINKFFRCCIKVIQFNLTDHTEQEEKTLELESIMSDFIFVYITKMRTTIDVVGLQELIEIFIFQVKVKLHHKKPSPNMYWALCKTLPKLSPTLKGLYLSKDVSIEDAILNSIDNKIQKDKAKSKGKQRGVKQKIHHFHEPMLHNSSEEQVKVEDAFNQRTSTDSRLQSTGTAPRKKNNDITVLAGSFWAVLKHHFTRS,
